Laboratory results: the DeepSol protein solubility set

Experiment: soluble on expression in E. coli; label from the status in PepcDB or PDB records

Row | Sequence | soluble on expression in E. coli
1 | MHTLEQLRAGALTGIQALKLSENLTEVPAEVFQLADTLEILDLSGNRLHSLPQEMACLTRLRILFLSDNDFTIFPEVLKELKQLDMLGIKANNIQVIAEDAIPVSLRWLILTDNCIEALPVSIGRCTKLQKVMLAGNQLSGLPDELAACRNIELLRISANNMHTFPEVVKQLPRLAWLAYSSNPFQVNRSSFNALPVIAWENVALMEQLGAGASGIIYKARLNTGKSPEDVAVKVFKGAVTSDGLPEDEMTACMQAGRNSHLVSVLGVIGGHPEGMHGLVMELIPAEYKNLGRPPSFVTCTRDTFAAGTRFTAQQMLLILKGVAEAAKQLHDNGIMHGDLYAHNTLINEKYHSLFGDFGAATLYDKNNRDEAFFLERLDVRAFGCLADDLLQYSVCTKEDEWCLETLKRLSAGCMNEEPDKRPAFNTIVYELQLLQNTHLEHHHHHH | soluble
2 | MHTVVMTKGVPDFREGQVSFDEDGHLERGKTPTVMNPNDKHALRAAFQTKVRNGGHVSLMSMGPPGYKEVLQEGMRDVYADDLYLLSDREMGAADTWATAMTVATGLQNLEEQPDLVFAGFKTADGETGHTGPQTCWCLDWPIITHVLSLDIDEDAGTVRAKRLVDGDISEIETVEAPMPCFIVADPEFEPTYRKASHRLKHKDLREETQERATEYEEYLTIWDHEGLNLDPDYIGLDGSPTIVAGVDPIPKAPSEREATVIEADEREALEPVLDELTPYAAGD | not soluble
3 | MIAITGASGQLGRLVIAQLLEKVPASDIVALVRDVNKVADLSAKGVQVKAADYNQPEALAFALQGVDKVLLISSSEVGQRAAQHRNVIEAAVKAGVKLVAYTSLLHADKSPLALAEEHRQTEALLKDSGLPHVLLRNGWYTENYAASIPAALEHGVFIGSAGEGKITSATREDFAAAAVAVLTQEGQAGKVYELAGDEPYTLVELAAEISKQSGKSIGYQNLSGAEFTAALVSAGLPDVFAQIIADSDVGASKGGLFDGGKHLSQLIGRPTTPLSAVVKATLK | soluble
4 | MIAITGATGQLGQHVIENLLKTTPASHLVAIVRNPKKAAPLSQRGIAVRQADYANEAALTTALQGVDKLLLISSSEVGQRTAQHRNVIQAAIAAKVKFIAYTSLLHADKSPLALADEHIETEKMLAESGIPHTLLRNGWYTENYLASVPAALKHGVFIGAAGEGKIASAMRADYAAAAARVIREEGHAGNVYELAGDDAWTLSQLADELTHQSGKKIVYQNLSEVDFAAALKGAGLPDGLADMLANSDAGAAKGGLFDDSHTLRKLIGRPTTTLTESLRSVL | not soluble
5 | MICTLLVPVLGSFELVGQSIKDALAEYTLTDIMNNNQFAGIEFGEAEDGFPAFRFLQTADVKSPYRMLLPEKLYEFAILITFRQSSLKGGYLFSVVNPLDTVVQLGVHLSPVVKNSYNVSLVYTQADQNIGRKLASFGVAHVPDKWNSIALQVLSDKVSFYYDCELRNTTLVTREPIELVFDSASTLYIGQAGSIIGGKFEVSSGGGQFDYAFDLQSIVGELEHHHHHH | not soluble
6 | MIDETAEEIREMRTHSSSVVAVKAARALEALLDSDYPTVAAYVRALERNSTALRRANPSHASLVTTQREVVSRVRDADPASIPEAQEVTAAAIDDVVARVNMGKHDAAAATAEHITDGQTLLTHDYSSTVLEAIELAAQDGAHLDVFVTEARPRHLGRKTVRALAQLDRVDPTLIVDGAAGHVLDDCDRVLLGMDCIVADTYYNRVGTYPIVAAAADAGTPVTVAGSAAKLVADGFQFTNDFRDTSEVIREPPAGFTVENPAYDATPTRLLDAVVTEDGRRTEFPLESLEHHHHHH | not soluble
7 | MIEEPVDDVIKHGPKTGTPETKTVEIPFETKREFNPKLQPGEERVKQEGQPGSKTITTPITVNPLTGEKVGEGQPTEEITKQPVDKIVEFGGEKPKDPKGPENPEKPSRPTHPSGPVNPNNPGLSKDRAKPNGPVHSMDKNDKVKKSKIAKESVANQEKKRAELPKTGLESTQKGLIFSSIIGIAGLMLLARRRKN | not soluble
8 | MIEINNLSKRYRNKQIFNHLTMSFDSNRLTVLLGDNGAGKSTLLRMIAGIEKANDGTINYFGEKWNQRQIQNHIGYVPQDIALFEHMTVAENIKFFKSLCKNPINDTTINEYLQQLNFDDTSAKVSTLSGGNKRKINILVGLLGQPRILILDEPTVGIDLKSRHDIHQLLNIMKSKCLIILTTHHLDEVEALADDIKLIGQDPFYQHVLEDKQWTYTYY | not soluble
9 | MIEKKIHYVWFGNAKSEKVLKCIESWKKNLPDYEIIEWNEKNFNIEEELKSNKFFRECYNRKLWAFVSDYVRVKVLYNYGGIYLDTDMEIIKDITPLLDADMFLGYENEDTMSFGIVGVIPKHKVFKKMYEFYQNEIWKSPLHIVTSILTEILEKEYHGKYRENNINIYPREYFYPFNHDEEFTKDCITGNTYAIHWWGKSWKKNPKVYFLKYKHLPWWKKYPKHVAKLINYYFKNLFNFRKELEHHHHHH | soluble
10 | MIELKPPDVMPNGNIGTPSQYFLEQIRLCRLPTTVISKLGIQTQKRKKKFGEVDFQYEKTDSCKAEKIKCETIPGVEDELEDPTERVRMNQNPEDNDDGKDDDNDQCEEWERHEALHEDVTEQDRAKPRKYEEEMEVTWEKGGPGLVWYTDKNYWDEREKGTDCDWAWADDWDVDYSVYYEGKSAGDMDAKAAIEMRNDDLMRSGKLEQSAFTKKRNPHNLGTTRKRRNSDGGGSSEKASENLQKGIGGSMLAKMGWKPGTGLGKNEQGRVVPVAVYVEEDGQSSKEKTGFGYRGEKLSRVVQKKTIRHVIASAFDSVTDREQCEDKQSEEELHGEILFRRSEVTKMNKFQVLKLQFPKRNIQKTKTFQNFGKLSKCTQLYRFFLMN | not soluble
11 | MIERGKFRSLTLINWNGFFARTFDLDELVTTLSGGNGAGKSTTMAAFVTALIPDLTLLHFRNTTEAGATSGSRDKGLHGKLKAGVCYSMLDTINSRHQRVVVGVRLQQVAGRDRKVDIKPFAIQGLPMSVQPTQLVTETLNERQARVLPLNELKDKLEAMEGVQFKQFNSITDYHSLMFDLGIIARRLRSASDRSKFYRLIEASLYGGISSAITRSLRDYLLPENSG | soluble
12 | MIEWQDLHHSELSVSQLYALLQLRCAVFVVEQNCPYQDIDGDDLTGDNRHILGWKNDELVAYARILKSDDDLEPVVIGRVIVSEALRGEKVGQQLMSKTLETCTHHWPDKPVYLGAQAHLQNFYQSFGFIPVTEVYEEDGIPHIGMAREVIQALEHHHHHH | not soluble
13 | MIEWQLAELIPHAGDMILIDQVLDFDEEQINTRLTVRADGLFNQPDGSLPAWLGIELMAQSVAAYAGCQARSKGEAVKLGFLLGSRKFDCNVARFPAGSELHIHAIRSLQDDSGMGVFECTLTGPDITALARLNVYCPPNTADYLAEGAPALEHHHHHH | not soluble
14 | MIFDGHSDTWADVTIRRLNGEKDVFRRIHLDNFKRANIEGAIFVIWIDPPYDKEPEKRVKQIISSIKDEIEDMKDVVNIVKKYSDIDKGISENKINILIGLEGLSHIGRNIDLLDYFYKEVGARHASLTWNEQNELATGCLGDENRGLTEIGKKAVNKMEKLGMIVDVSHLNEKSFWDLMSVASKPVIASHSNARSLCDAKRNLTDNQLKEISNTGGLVGINSFRGFTNSNPKKQDLIHLVDHIDYMVNLIGIEHVSFGFDFSDYLGKETIGSFTGNASVPSVDGLESTHTAQNIVVELENRGYKKKDIELISSGNFYRLFKDILK | not soluble
15 | MIGGSLDAFIGSVHRMAAALDGTIELVCGAFSSNAARSIQTGEALHLPKERIYASYEEMIVQEAQLPADVRMQFVSIVTPNHLHAQPALLALKHGFHVLCEKPLAFSVAEAEQLGIQVKETGLLFGLTHTYTAYPMVKEARDLIAKGKLGTIRKIIVEYPQGWLSAPIESDGQKQAGWRTDPAQAGLSCCVGDIGTHAENIAEYITGLKITELSADVSSVVAGRKLDDDANILLRFDNGAKGVLIASQIANGEENELKIRVYGEHAGLEWLQSEPNTLIVKQNDQPTQLRRAGANHSYLSEHARLHCRIPAGHPEGYIEAMANIYRNFSKAVHSFEDQITHNPLLDYPTIEDGIRGMKFIETVIISGKENATWKQLLEHHHHHH | soluble
16 | MIGMMNSGAESSVEFYAAARQSSLYEPRKKSSQSRTYTPEGRVLVNGAPLSPTLDPQDLWKNMIIKTAAQKMIRENCEKKETGPMATIRRLSEKLKLKKSKSSAAMMNLDLDLDQKIPEVSEIESSSTTAVPQSPQQFVTNIRIEEANPVFFVQQSESLDRPHMLFEETSVLARLLEESSQIDKMEKDFAEKDSGKGSIDDDSVVVHKL | not soluble
17 | MIHSLFFHNNTKGTPSMKHPIDSISAEIEDEQAYVDKLFGKLDEEVVAANQRLNDVMLHVDPANPDAEALVRRETEYHALNEKIDRLNIAQLGLVFGRIDVTAQRTDLIDNWVAGTDNVDRRYIGRMGLDDRQNDYRTLLLDWRAPLARPFYLATTAHPEGVLHRRHIRTQGRSVVGVDDEVLSGVSAESAHSERADVVSETALYRAMCSARTGHMHSIVETIQREQDDIIRDPTRGVMVVEGGPGTGKTAVALHRVAYLLYTWRDQLAKTGVLIVGPNRSFLDYISRVLPELGETGVVLSTVGDLYPGISGTAVEDSLAREIKGSEEMVTVLRRLVQEYQQIPSEPFTIKIDGLELTVTPDIVKKARTRARRSRRPHNEARPLFTEHLTELLSHQMADLIGADPMGGKNLLSAADIAQLHDELLEESVVAEIVDEYWPQLTPQDTLTSLLESQNMISTVAYDYDEETQEALWRQQGSPWAASDAALLDELAVIIGVPDPEKERAEQEKAWREQIKDAQDALEILTGSANTDLDDESDAEILSAHDVIDAETLARRQEVRDIRSTAQRAREDLAWAYGHVIVDEAQELTPMEWRMVMRRCPSRWMTLVGDTAQTSSPAGVDSWAEALEPFVSGRYVTHHLTINYRTPAEIMEWANKVLHVFAPDAVGSTALRQSGTPVRFENSDAHAIEIAQKLRQDDPSRLTAIIGPDSMANNEIFGVSDIKGLEYDHVVVTNPIDIVNGSPQGWQDLYVALTRATQSLCIIGDLPELS | not soluble
18 | MIIAREKRRNNIAEYVLYMWQIEDLIRANELDMQRLRATVIAQYRQDTETTAEIDRWYAELVEMMLTEGVREQGHINIVRIAIMQMEEIHSRLMADPKEMIYQGLYYQVLPAIVQLRAKSAGSNTGEIETCLTAIYGLLTLRLQKKEVSEETLASIKQMSTLLSVLSEKFAAREEGTDEALL | not soluble
19 | MIIATAGHVDHGKTTLLQAITGVNADRLPEEKKRGMTIDLGYAYWPQPDGRVPGFIDVPGHEKFLSNMLAGVGGIDHALLVVACDDGVMAQTREHLAILQLTGNPMLTVALTKADRVDEARVDEVERQVKEVLREYGFAEAKLFITAATEGRGMDALREHLLQLPEREHASQHSFRLAIDRAFTVKGAGLVVTGTALSGEVKVGDSLWLTGVNKPMRVRALHAQNQPTETANAGQRIALNIAGDAEKEQINRGDWLLADVPPEPFTRVIVELQTHTPLTQWQPLHIHHAASHVTGRVSLLEDNLAELVFDTPLWLADNDRLVLRDISARNTLAGARVVMLNPPRRGKRKPEYLQWLASLARAQSDADALSVHLERGAVNLADFAWARQLNGEGMRELLQQPGYIQAGYSLLNAPVAARWQRKILDTLATYHEQHRDEPGPGRERLRRMALPMEDEALVLLLIEKMRESGDIHSHHGWLHLPDHKAGFSEEQQAIWQKAEPLFGDEPWWVRDLAKETGTDEQAMRLTLRQAAQQGIITAIVKDRYYRNDRIVEFANMIRDLDQECGSTCAADFRDRLGVGRKLAIQILEYFDRIGFTRRRGNDHLLRDALLFPEK | soluble
20 | MIICKTPREIEIMREAGRIVALTHQELKQHITPGITTKELDQIAEKTIQKYGATPSFKGYNGFPGSICASVNEELVHGIPGKRKLKEGDIISIDIGAKYNGYHGDSAWTYPVGNISESVQKLLDVTEKSLYLGLEQVKPGERLSNISHAVQTHAEENGFSIVREYVGHGIGQDLHEDPQIPHYGPPNRGPRLKPGMVICVEPMVNQGRRYVKTLSDDWTVVTVDGKWCAHFEHTIALTEAGYEILTTL | soluble
